This note sets out measurements from patent US20180037645A1 (Bristol-Myers Squibb, published 2018).

First the molecules themselves.
B1: IL-23 alanine shave mutant M5 (ligand, human)
chain 1: RAVPGGSSPAWTQCQQLSQKLCTLAWSAHPLVGAADLREEGDEETTNDVPHIQCGDGCDPQGLRDNSQFCLQRIHQGLIFYEKLLGSDIFTGAPSLAPASPVGQLHASLLGLSQLLQPEGHHWETQQIPSLSPSQPWQRLLLRFKILRSLQAFVAVAARVFAHGAATLSP
chain 2: IWELKKDVYVVELDWYPDAPGEMVVLTCDTPEEDGITWTLDQSSEVLGSGKTLTIQVKEFGDAGQYTCHKGGEVLSHSLLLLHKKEDGIWSTDILKDQKEPKNKTFLRCEAKNYSGRFTCWWLTTISTDLTFSVKSSRGSSDPQGVTCGAATLSAERVRGDNKEYEYSVECQEDSACPAAEESLPIEVMVDAVHKLKYENYTSSFFIRDIIKPDPPKNLQLKPLKNSRQVEVSWEYPDTWSTPHSYFSLTFCVQVQGKSKREKKDRVFTDKTSATVICRKNASISVRAQDRYYSSSWSEWASVPCS
B2: IL-23 alanine shave mutant M7 (ligand, human)
chain 1: B1 chain 1 with A34H, A35M, A93E, A97L, A99D, W123A, E124A, T125A, Q126A, Q127A
chain 2: B1 chain 2
B3: IL-23 alanine shave mutant M10 (ligand, human)
chain 1: B1 chain 1 with D36A, A93E, A97L, A99D, F144A
chain 2: B1 chain 2
B4: IL-23 alanine shave mutant M9 (ligand, human)
chain 1: B1 chain 1 with A34H, A35M, A93E, Q104A
chain 2: B1 chain 2

Where a chain is given by its changes, count along the chain named.

In this assay the target is human IL-23Rα / human IL-12Rβ1 on BaF3 transfectants (human, UniProt Q5VWK5 24-629; P42701 24-662). As to the kind of experiment: cell-based or functional assay.
Sequence of human IL-23Rα / human IL-12Rβ1 on BaF3 transfectants (Q5VWK5 24-629, chain 1 of 2, other chains not shown): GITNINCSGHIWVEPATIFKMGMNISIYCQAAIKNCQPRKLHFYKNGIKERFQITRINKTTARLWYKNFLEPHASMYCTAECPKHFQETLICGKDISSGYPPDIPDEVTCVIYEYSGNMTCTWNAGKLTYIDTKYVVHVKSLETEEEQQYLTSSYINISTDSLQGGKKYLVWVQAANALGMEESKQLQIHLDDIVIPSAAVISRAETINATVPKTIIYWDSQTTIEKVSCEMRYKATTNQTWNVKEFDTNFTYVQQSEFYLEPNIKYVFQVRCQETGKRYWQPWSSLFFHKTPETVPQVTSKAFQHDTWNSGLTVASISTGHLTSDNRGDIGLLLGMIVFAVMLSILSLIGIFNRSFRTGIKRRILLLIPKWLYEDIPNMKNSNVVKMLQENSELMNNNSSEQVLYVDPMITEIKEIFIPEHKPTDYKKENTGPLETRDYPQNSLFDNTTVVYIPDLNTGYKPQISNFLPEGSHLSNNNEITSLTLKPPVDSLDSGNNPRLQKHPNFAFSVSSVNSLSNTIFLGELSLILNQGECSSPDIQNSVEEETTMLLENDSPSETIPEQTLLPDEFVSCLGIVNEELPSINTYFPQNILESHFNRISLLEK
B1: the “EC50, pSTAT3 in BaF3/huIL-23Rα/huIL-12Rβ1 transfectants” value came to 26 pM.
As for B2, the “EC50, pSTAT3 in BaF3/huIL-23Rα/huIL-12Rβ1 transfectants” value is 21 pM.
For B3 the value was 19 pM.
As for B4, the figure is 33 pM.
